The text below walks through data of US20130130922, “ANALYSIS OF METHYLATION SITES” (Centre for Addiction and Mental Health, published 2013).

The target of the data set is M.SssI Q142A/N370A (UniProt P15840 SEQ:1-386, Q142A,N370A). Put plainly: Ado-6-amine 80 uM, no Mg, 37 C; modified deoxycytidine detected by HPLC/ESI-MS. To be noted: tags: His6.
M.SssI Q142A/N370A, sequence (P15840 whole entry Q142A/N370A): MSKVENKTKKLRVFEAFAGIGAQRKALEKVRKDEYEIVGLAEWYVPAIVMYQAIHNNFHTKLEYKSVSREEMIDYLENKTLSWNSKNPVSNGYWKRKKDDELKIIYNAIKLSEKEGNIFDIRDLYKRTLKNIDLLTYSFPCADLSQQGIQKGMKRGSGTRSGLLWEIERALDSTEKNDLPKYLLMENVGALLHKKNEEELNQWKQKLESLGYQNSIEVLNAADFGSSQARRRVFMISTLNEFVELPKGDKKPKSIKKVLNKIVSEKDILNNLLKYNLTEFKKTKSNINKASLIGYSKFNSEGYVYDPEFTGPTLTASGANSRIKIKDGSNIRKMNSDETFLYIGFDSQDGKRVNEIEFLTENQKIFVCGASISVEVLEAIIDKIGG

B1: 24-mer duplex oligonucleotide (dsDNA)
DNA 1: GCATTACGCGCCAGGTCGTTTCGT
DNA 2: TACGAAACGACCTGGCGCGTAATG
Take B1: the binding result is listed as “binds”.
